Data from PMC10397247.
Blank lines part the entries; values can stand above or below the binder they belong to.

Assays:
P6mS = target: T1, P6mS; assay: two-hybrid library CCNG1;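 note: natural log of median RNA to DNA barcode read ratio; higher means stronger binding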
T1 chain: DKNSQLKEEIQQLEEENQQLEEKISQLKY

P7mS = target: T2, P7mS; assay: two-hybrid library CCNG1;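 note: natural log of median RNA to DNA barcode read ratio; higher means stronger binding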
T2 chain: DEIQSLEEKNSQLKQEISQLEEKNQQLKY

P8mS = target: T3, P8mS; assay: two-hybrid library CCNG1;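 note: natural log of median RNA to DNA barcode read ratio; higher means stronger binding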
T3 chain: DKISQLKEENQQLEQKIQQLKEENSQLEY

P9mS = target: T4, P9mS; assay: two-hybrid library CCNG1;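 note: natural log of median RNA to DNA barcode read ratio; higher means stronger binding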
T4 chain: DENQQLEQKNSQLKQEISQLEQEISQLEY

4H1930-AA = target: T5, 4H1930-AA; assay: two-hybrid library CCmax;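 note: natural log of median RNA to DNA barcode read ratio; higher means stronger binding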
T5 chain: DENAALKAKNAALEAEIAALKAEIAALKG

4H2124-AA = target: T6, 4H2124-AA; assay: two-hybrid library CCmax; conditions: mean of both orientations;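 note: natural log of median RNA to DNA barcode read ratio; higher means stronger binding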
T6 chain: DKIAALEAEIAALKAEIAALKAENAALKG

4H2165-AA = target: T7, 4H2165-AA; assay: two-hybrid library CCmax; conditions: mean of both orientations
T7 chain: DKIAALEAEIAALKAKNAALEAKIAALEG

4H2253-AA = target: T8, 4H2253-AA; assay: two-hybrid library CCmax; conditions: mean of both orientations
T8 chain: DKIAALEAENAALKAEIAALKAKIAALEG

4H2330-AA = target: T9, 4H2330-AA; assay: two-hybrid library CCmax; conditions: mean of both orientations
T9 chain: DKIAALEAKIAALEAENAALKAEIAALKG

4H2343-AA = target: T10, 4H2343-AA; assay: two-hybrid library CCmax; conditions: mean of both orientations
T10 chain: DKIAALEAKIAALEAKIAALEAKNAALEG

4H2466-AA = target: T11, 4H2466-AA; assay: two-hybrid library CCmax; conditions: mean of both orientations
T11 chain: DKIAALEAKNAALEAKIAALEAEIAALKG

4H249-AA = target: T12, 4H249-AA; assay: two-hybrid library CCmax; conditions: mean of both orientations
T12 chain: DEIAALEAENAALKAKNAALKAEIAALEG

4H2512-AA = target: T13, 4H2512-AA; assay: two-hybrid library CCmax
T13 chain: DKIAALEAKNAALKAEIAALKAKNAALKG

4H2592-AA = target: T14, 4H2592-AA; assay: two-hybrid library CCmax; conditions: mean of both orientations
T14 chain: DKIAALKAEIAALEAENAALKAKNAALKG

4H2732-AA = target: T15, 4H2732-AA; assay: two-hybrid library CCmax; conditions: mean of both orientations
T15 chain: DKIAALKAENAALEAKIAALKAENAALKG

4H2774-AA = target: T16, 4H2774-AA; assay: two-hybrid library CCmax; conditions: mean of both orientations
T16 chain: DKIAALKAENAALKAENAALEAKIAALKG

4H2931-AA = target: T17, 4H2931-AA; assay: two-hybrid library CCmax; conditions: mean of both orientations
T17 chain: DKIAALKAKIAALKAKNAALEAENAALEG

4H3001-AA = target: T18, 4H3001-AA; assay: two-hybrid library CCmax; conditions: mean of both orientations
T18 chain: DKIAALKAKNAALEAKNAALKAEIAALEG

4H3015-AA = target: T19, 4H3015-AA; assay: two-hybrid library CCmax; conditions: mean of both orientations
T19 chain: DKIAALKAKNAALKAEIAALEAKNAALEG

4H3073-AA = target: T20, 4H3073-AA; assay: two-hybrid library CCmax; conditions: mean of both orientations
T20 chain: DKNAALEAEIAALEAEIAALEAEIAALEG

4H3438-AA = target: T21, 4H3438-AA; assay: two-hybrid library CCmax; conditions: mean of both orientations
T21 chain: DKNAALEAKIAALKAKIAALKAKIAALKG

4H347-AA = target: T22, 4H347-AA; assay: two-hybrid library CCmax; conditions: mean of both orientations
T22 chain: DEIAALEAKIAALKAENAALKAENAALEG

4H406-AA = target: T23, 4H406-AA; assay: two-hybrid library CCmax; conditions: mean of both orientations
T23 chain: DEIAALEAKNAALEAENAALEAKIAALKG

4H452-AA = target: T24, 4H452-AA; assay: two-hybrid library CCmax; conditions: mean of both orientations
T24 chain: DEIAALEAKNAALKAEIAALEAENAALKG

4H56-AA = target: T25, 4H56-AA; assay: two-hybrid library CCmax; conditions: mean of both orientations
T25 chain: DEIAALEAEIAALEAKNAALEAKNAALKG

4H_APH = target: T26, 4H_APH; assay: two-hybrid library CCmax
T26 chain: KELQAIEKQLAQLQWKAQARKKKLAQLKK

4H_BCR = target: T27, 4H_BCR; assay: two-hybrid library CCmax; conditions: mean of both orientations
T27 chain: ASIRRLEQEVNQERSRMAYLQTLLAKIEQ

4H_GCN4 = assay: two-hybrid library CCmax
Sequence of 4H_GCN4 (chain, as listed by the source): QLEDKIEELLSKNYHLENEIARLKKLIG

GCN2_T = assay: two-hybrid library CCmax

- interaction score (P6mS): -0.275
- interaction score (P7mS): -2.21
- interaction score (P8mS): -0.784
- interaction score (P9mS): -0.654
B1: P6mS (peptide)
chain: DKNSQLKEEIQQLEEENQQLEEKISQLKY

- interaction score (4H1930-AA): 1.78
- interaction score (4H2124-AA): -1.14
- interaction score (4H2165-AA): -1.35
- interaction score (4H2253-AA): -1.35
- interaction score (4H2330-AA): -1.7
- interaction score (4H2343-AA): -1.34
- interaction score (4H2466-AA): -1.3
- interaction score (4H249-AA): -1.82
- interaction score (4H2512-AA): -3.66
- interaction score (4H2592-AA): -1.46
- interaction score (4H2732-AA): -1.87
- interaction score (4H2774-AA): -1.57
- interaction score (4H2931-AA): -1.91
- interaction score (4H3001-AA): -1.62
- interaction score (4H3015-AA): -1.72
- interaction score (4H3073-AA): -0.77
- interaction score (4H3438-AA): -1.3
- interaction score (4H347-AA): -1.32
- interaction score (4H406-AA): -1.92
- interaction score (4H452-AA): -1.51
- interaction score (4H56-AA): -2.31
- interaction score (4H_APH): -1.06
- interaction score (4H_BCR): -1.93
- interaction score (4H_GCN4): -1.23
- interaction score (GCN2_T): -1.22
B2: 4H1930-AA (peptide)
chain: DENAALKAKNAALEAEIAALKAEIAALKG
